Data: the DeepSol protein solubility set

Test: soluble on expression in E. coli; label from the status in PepcDB or PDB records

Sequence | soluble on expression in E. coli
MGSDKIHHHHHHMLQFIPVFDGNTIAVRASGKLTLEDFQQFFPQLETQIKRLGKISLLFEFDNFSGWDLDAAIDDIKFGMKHLSDFERIAMVGDKSWEHWMALIAKPFLISSEVRYFNRENLQQAWDWLREKQEFEKAVEQLQPYQNIVVAVDFSLYSKHACKRAIELANYYQASLTLLNVVPEVLAYTLYGDPVGYNVVDLDIIKDQNKKNIDAAQFQMKAFVNDLDTNFPIETKVICGEINYGVVSFLEAQHIDLAIFGAKKKKGINKLLGSVPHYVQNHSRCEILIVPVQGPVF | not soluble
MGSDKIHHHHHHMSVQISVVAATLNEIDNIEQFIDGVEGVLKGMEFEIIVVDDNSSDGTKEYLARRMNEDTHVVVIENPYRFGMLRSLKLGIEKAGGEIVLVMDADMQHPPSAIPKLISRIVDGCDIVVGSRYVDGGSAGDRDAFRAALSRGAEFLAHALVPSSRMTSDPMSGFFAFRRDLRHDFAYRQTFATADYGAKILLIILAENRHAKVCDVGYVFQSRMRGKSKIVSGTSFLKRYLAELFEVMKLERRYRHMQ | not soluble
MAHHHHHHMAECSGVADDDTTKKLLLEGDSALRQGRSYYQEALAKYTEALTHNPNSIRGLYSRAELLSMLRRRDACMSDLDQLLKLDSKHQRGLVLRSALYSQAGQLKEAVRDVEKLVEVMSEGGKAAKVQEYKAKLQQLRRYAEVWIPLQLKLQAAKQGAVTLSRDEQCACVGFLHDMIREFAKDNAGLRLQRAECALACGDNQAASEELKYVVQREPQNLDAVALGARALRALGALEQARRELRRCLSLDPEFALCAQLHKLVREQIRVTQGVEKALEEKDYGKVLKLIEGAMRFEENPPYKDQLLRWRCDAAVGMQDTKDGLPACDEAIQLYSPEDPTVVSILLQKLELYLMDGNVERAEEMLQRAQQLQPNDGKVNEYKRKMERIKRVGLRKNYYKILGVKKTADSSEIRRAYRHLAKTFHPDKLASQELSKEERAEADKRFRDINEAKEILLDDEKRARYDNGEDPTKPPGQDEHAFHGQPFNFPNEMFGQGGRFQQFYFHFD | not soluble
MGSDKIHHHHHHWQVTGSKTTLDGVEAARMSGIESYPLRLEPELVCEADDLDALLDVDALVITLPARRSGPGEDFYLQAMQELVDSALAYRIPRIIFTSSTSVYGDAQGVVKENTPRNPVTASGRTLKELEDWLHNLPGTSVDILRLAGLVGPGRHPGRFFAGKTAPDGQHGVNLVHLEDVVGAITLLLQAPKGGHIYNICAPAHPARNVFYPQMTRLLGMAPPHFRDAPDNGKGKIIDGSRICNELGFEYQYPDPLVMPME | not soluble
MAKRKGKGTRSESNRNLEELRRKAVEIVKRLEKVYLNPRLELEYENAFQLLVMAILAAQESDKVVNKVSKEFFKKYKTPQDIARANLEELEEDLKHINFYRRKAKLIKECCEKLIELYKGEVPKSVGELVKLPGVGRKTANMVIGGAYNLPAIIVDRHVHRVVERISLSKQKNPDKMEMELSEIVPQELWTKFSLLLLNHGKTICKARNPECEKCPILDLCEYGQKNLKGRK | soluble
GQDRSEATLIKRFKGEGVRYKAKLIGIDEVSAARGDKLCQDSMMKLKGVVAGARSKGEHKQKIFLTISFGGIKIFDEKTGALQHHHAVHEISYIAKDITDHRAFGYVCGKEGNHRFVAIKTAQAAEPVILDLRDLFQLIYELKQREELEKKA | soluble
MLDGLTYAYGDLIEKVPDFEIIQRKSPKSGKVALVSGGGSGHKPAHAGFVGEGMLSAAVCGAIFTSPTPDQIYEAIKSADEGAGVLLIIKNYLGDVMNFEMAREMAEMEEIKVEQIIVDDDIAVENSLYTQGRRGVAGTVLVHKILGAAAHQEASLDEIKDLADKVVKNIKTIGLALSAATVPEVGKPGFVLDDNEIEYGVGIHSEPGYRREKMKTSYELATELVGKLKEEFKFEAGQKYGILVNGMGATPLMEQFIFMNDVAKLLTEENIEILFKKVGNYMTSIDMAGLSLTMIKLEDDQWLKNLNEDVKTISWGLEHHHHHH | not soluble
MGHHHHHHSHMDALEGESFALSFSSASDAEFDAVVGYLEDIIMDDEFQLLQRNFMDKYYLEFEDTEENKLIYTPIFNEYISLVEKYIEEQLLQRIPEFNMAAFTTTLQHHKDEVAGDIFDMLLTFTDFLAFKEMFLDYRAEKEGRGLDLSSGLVVTSLCKSSSLPASQNNLRH | soluble
MSNRKFNLDNEVQPEIHFRLLSISASKFENDWTSFPHSHHFTEIFFIKDGTGRMLIENESLPVSSNSLVVIGAQVTHTEFSDPENPLDYYVLGVEGLKLNTDKEPEYIHVPASANSPFIRQCFENILREMHNKQDRYAEICQHYLDILILYFCRKDHVSYEVVDAQNSSRECHKVKRFIEHNYQSMISLDSLAENCSLSKYYLSHRFAELYGKSPIAYLNEVRLASARDLLLTTNHSIEEIAGCIGFSSTSYFSQSFQKNFHESPQQFRKSHRVRT | not soluble
MLRWIVLICISLFLPLSAYADKSDCINHHCIAVIDAGSSSSRLHIYAYDLDETNTPIAIREIWNRKAVPGLPTIEHENKSVSAYMEKLFSDAPAVLMPVYFYSTAGMRLLPKTHHRNVNQLVAEWFDRQYYWRLVTARTISGTEEGIFAWLATNYQLNLFQQEPQTLAGVMDIGGASVQIVIPVVNPSFMDHEHTTTIRLYGKEFTVFSHSFLGLGQNEMGHQFFDLKFCFPEEYELPSGRQARGDAYACKDEIAILVNSVHSVSRKIKSVLAANPIEKWYILGGITFMLNDKLFSLDNQYFTNRDLISYADQNICHQKWSTLEVLYPDNLMVFNYCMLPSYLYALLVHGYGLKSYQKVNFMPNSKNIDWTLGVVLQHKQSAAALEHHHHHH | not soluble
GMIKKEGPGWRIIFDSSRDNFSTLIGGETWAIELDKSEWKILVEVVMELCDQYKLVKEQLMGDEDITLELERRPWLAILNGDQYGWNLRLILSASGLFNRGAEVYWPRHVTNNVVNAMRSMWDSDYL | soluble
MSLKITDLELHAVGIPRHTGFVNKHVIVKIHTDEGLTGIGEMSDFSHLPLYSVDLHDLKQGLLSILLGQNPFDLMKINKELTDNFPETMYYYEKGSFIRNGIDNALHDLCAKYLDISVSDFLGGRVKEKIKVCYPIFRHRFSEEVESNLDVVRQKLEQGFDVFRLYVGKNLDADEEFLSRVKEEFGSRVRIKSYDFSHLLNWKDAHRAIKRLTKYDLGLEMIESPAPRNDFDGLYQLRLKTDYPISEHVWSFKQQQEMIKKDAIDIFNISPVFIGGLTSAKKAAYAAEVASKDVVLGTTQELSVGTAAMAHLGCSLTNINHTSDPTGPELYVGDVVKNRVTYKDGYLYAPDRSVKGLGIELDESLLAKYQVPDLSWDNVTVHQLQDRTADTKSEGHHHHHH | soluble
MSLGKEGLERLVYMVDRSDSLSLLQERIDSIEVVAPQVFSFTLEGTVYGEVDPRIIALAKERGKKLMPLVMNENFEKEKIKAFLANPKAQERLIGSLIKIALKEGFGGWQLDFEHLGITSKEAYTQLVRQLYARLKEHHLSLSIAVVPPRGEEPKNAYGAKVFEDWVSPYDLKALAEHSDFLTLMAYDQHTGGSTPGPIASRAWVEGIIQEALIWVPKEKLSLGIPLYSRLWHAGIKEEKMRGVAKSLTFAGAMDWLERQGAETLWLERDGVKWAMGERGGVKEYLFMEEARSLALKVELAKRYGLRGISLWRLGQEDPRIWDELEGHHHHHH | soluble
MSLRSYLGSISTSKTEVNSMKMHVLKLLIPTMALLLSACASLPPELGNPDDKSVVTQYSAWLERDPATQSPVRMGGVVANISNQKDRTRVELVNLPIDSAGRPNIHQEPQGRFVAYVPGFLDPITYGEGRLLTLYGTTAPSEQGKVGDYEHTYPVMNAQGYHLWRVEERVEVDDIGPYMFPCRGFYCWPRTMPERDGKIIQEVKEGGSHHHHHH | soluble
MSEKEIWEKVLEIAQEKLSAVSYSTFLKDTELYTIKDGEAIVLSSIPFNANWLNQQYAEIIQAILFDVVGYEVKPHFITTEELANYSNNETATPKETTKPSTETTEDNHVLGREQFNAHNTFDTFVIGPGNRFPHAASLAVAEAPAKAYNPLFIYGGVGLGKTHLMHAIGHHVLDNNPDAKVIYTSSEKFTNEFIKSIRDNEGEAFRERYRNIDVLLIDDIQFIQNKVQTQEEFFYTFNELHQNNKQIVISSDRPPKEIAQLEDRLRSRFEWGLIVDITPPDYETRMAILQKKIEEEKLDIPPEALNYIANQIQSNIRELEGALTRLLAYSQLLGKPITTELTAEALKDIIQAPKSKKITIQDIQKIVGQYYNVRIEDFSAKKRTKSIAYPRQIAMYLSRELTDFSLPKIGEEFGGRDHTTVIHAHEKISKDLKEDPIFKQEVENLEKEIRNVLEHHHHHH | soluble
